From US7569390 (MEDICAL RESEARCH COUNCIL, dated 2009) come the findings set out here.

This test deals with T1, Syk/BTM116 (LexA-Syk bait) (E. coli, UniProt P48025 1-629).
T1 construct: also called pLexA-Syk; not shown: E. coli LexA domain of vector pBTM116
Briefly: yeast two-hybrid (L40), β-galactosidase assay; FIG. 2B row 2, empty pVP16 control.

T1 sequence (P48025 whole entry, the tested form may be a part): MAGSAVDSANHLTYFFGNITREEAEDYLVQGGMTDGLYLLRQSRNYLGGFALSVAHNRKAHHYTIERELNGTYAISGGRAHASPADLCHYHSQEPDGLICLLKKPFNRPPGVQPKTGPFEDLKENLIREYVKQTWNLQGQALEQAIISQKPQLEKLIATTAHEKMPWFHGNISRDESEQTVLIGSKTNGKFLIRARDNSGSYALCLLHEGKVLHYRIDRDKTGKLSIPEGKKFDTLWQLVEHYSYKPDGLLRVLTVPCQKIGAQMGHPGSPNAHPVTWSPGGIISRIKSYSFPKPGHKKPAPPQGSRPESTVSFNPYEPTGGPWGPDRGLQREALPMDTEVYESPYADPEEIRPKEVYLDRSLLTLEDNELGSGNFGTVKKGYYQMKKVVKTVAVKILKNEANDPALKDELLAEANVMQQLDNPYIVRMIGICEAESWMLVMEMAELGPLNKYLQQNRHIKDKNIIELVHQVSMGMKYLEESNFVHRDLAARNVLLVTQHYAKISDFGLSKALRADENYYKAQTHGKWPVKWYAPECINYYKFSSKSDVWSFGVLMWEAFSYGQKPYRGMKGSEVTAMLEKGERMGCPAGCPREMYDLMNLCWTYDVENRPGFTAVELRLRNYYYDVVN

B1: VP16 vector alone (pVP16, no scFv insert) (other)
chain: STAPPTDVSLGDELHLDGEDVAMAHADALDDFDLDMLGDGDSPGPGFTPHDSAPYGALDMADFEFEQMFTDALGIDEYGG
notes: also called empty pVP16 vector
Regarding B1, the binding result is on record as “no binding”.
